Test results from the supplement of paper PMC9170038.

System: MS2 coat protein
Assay: apparent KD of MS2 coat protein; designed switch direction (-1 OFF switch, 1 ON switch): -1; higher = weaker reporter binding
Method in brief: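 Designed RNA switches with common flanks were made on Illumina chips by stalled E. coli RNA polymerase. Titration with SNAP-549-labelled MS2 coat protein doubled from 0.7 or 1.5 nM up to 3 µM. Apparent KD is each design's median over clusters after curve-fitting normalised fluorescence.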

[1] = input ligand: microRNA oligo, concentration not stated
[2] = Eterna round: R95, input ligand: microRNA oligo, concentration not stated
[3] = Eterna round: R95, input ligand: FMN 200 uM
[4] = Eterna round: R95, input ligand: none

| Sequence | apparent KD of MS2 coat protein (input ligand: FMN 200 uM) [nM] | apparent KD of MS2 coat protein (input ligand: none) [nM] | apparent KD of MS2 coat protein [1] [nM] | apparent KD of MS2 coat protein [2] [nM] | apparent KD of MS2 coat protein [3] [nM] | apparent KD of MS2 coat protein [4] [nM] |
| --- | --- | --- | --- | --- | --- | --- |
| UUCCCACAUGAGGAUCACCCAUGUGAGGAUAUGGGCGGCGCCGCAAAAGCGGCGCCGCCCAGAAGGCGCAUGAU [Malcxlusion 8 - Jieux - Exclusion 1] (Eterna round: R97, puzzle: Exclusion 1) | 21.6 | 18.4 | – | – | – | – |
| UUCCUCUCUUCUCCGUCUCACAUGAGGAUCACCCAUGUAACAUAGGAUAUGCUUGGUAUUUAAAUGCAGAAGGAUGUUAGUAUU [JR_ExcNG3_Sub081] (Eterna round: R96, puzzle: Exclusion NG 3) | 76.6 | 29.5 | 21.1 | – | – | – |
| UUCCUCUCUUCUUUGUCUCACAUGAGGAUCACCCAUGUAACAUAGGAUAUGCUUGGUAUUUAUAUGCAGAAGGAUGUUAGUAUU [JR_ExcNG3_Sub083] (Eterna round: R96, puzzle: Exclusion NG 3) | 60.8 | 25.7 | 19 | – | – | – |
| UUCUAACGAGGAUAUCGAUGGUGGAACAUGAGGAUCACCCAUGUAUGAGAUAUUGUAGUUCGAGAAGGCGUUCAGU [JR_E5_Sub057] (Eterna round: R96, puzzle: Exclusion 5) | 35.9 | 48.6 | 32.3 | – | – | – |
| UUCUAACGAGGAUAUCGAUGGUGGAACAUGAGGAUCACCCAUGUAUGAGAUAUUGUAGUUCGAGAAGGCGUUCAGU [JR_E5_Sub057] (puzzle: Exclusion 5) | – | – | – | 36.6 | – | – |
| UUGAACCCGGUAGGAUAUAUUGUGGGCAAACAUGGAACAACAUGAGGAUCACCCAUGUAAUUUAGGUAGAAGGGCCAAAAGAUU [Excl-NG2-LRO06] (Eterna round: R96, puzzle: Exclusion NG 2) | 72.1 | 69.9 | 61 | – | – | – |
| UUGAAGUCAUCAGGAUAUAGUAUUAAAGACAUUUAUUUUUUCAUACAUGAGGAUCACCCAUGUCGCUAGAAGGGAUUAUAGAUU [JR_ExcNG2_Sub079] (Eterna round: R96, puzzle: Exclusion NG 2) | – | – | 38.4 | – | – | – |
| UUGACGGCAGGAUAUACAUGAGGAUCACCCAUGUAAAUUUUUCGUUUAACUUGAAUGUGUAGAAGGGCCAACUU [Ex3 #73] (Eterna round: R97, puzzle: Exclusion 3) | 18.6 | 16.8 | – | – | – | – |
| UUGACGUCGUCAGGAUAUAGUUUUAAUGUCAUGCUUUUGUUUUUACAUGAGGAUCACCCAUGUCGCUAGAAGGGACUAAAGAUU [JR_ExcNG2_Sub012] (Eterna round: R96, puzzle: Exclusion NG 2) | 33.5 | 35 | 32.8 | – | – | – |
| UUGAUAUGAGGAUAUUGCUAAGUCGACAUGAGGAUCACCCAUGUGAAGGAAUGUUUAUUGCAAGAAGGCGUCGCGG [Eternabot (L1) Solution 10] (Eterna round: R97, puzzle: Exclusion 5) | 49.5 | 60.5 | – | – | – | – |
| UUGAUGUGAGGAUAUAUAUGGUGGUUUUUUUAUUUUUUAUUACUUGAGGAUCACCCAAGUAGAAGGCGCUACGU [JR_Ex2_Sub069] (Eterna round: R97, puzzle: Exclusion 2) | 29.4 | 39.3 | – | – | – | – |
| UUGCCUAAUGUUAGGAUAUGCGACGGGUGACCGUUGCAGAAGGAACAUGAGGAUCACCCAUGUUUAAUAAAAUC [JL-BMX4-4.43 ViennaUCT mod] (Eterna round: R97, puzzle: Brourd's mod of Exclusion 4) | 69.3 | 14.9 | – | – | – | – |
| UUGCGGCAAGGAUAUACAUGAGGAUCACCCAUGUAGUAUUUGGUGCUGGCGAGCUGGUGUAGAAGGUGCACGCA [EX3 B.3] (Eterna round: R97, puzzle: Exclusion 3) | 21.2 | 16.1 | – | – | – | – |
| UUGGCAGGUUUUUUGCUCGACAUGAGGAUCACCCAUGUUGCGUGGGUUGUGUGUGUGCGGUGUAUAUAUAUGGUCCU [-24.8, -48.1 kcal, A 14%] (Eterna round: R97, puzzle: Sensor, turn-off variant 1) | 480 | 644 | – | – | – | – |
| UUGUAACAUGAGGAUCACCCAUGUGAGGAUAUGGUUAAGUAAUGUAAUGUAAAGUAAUCCAGAAGGCACAAGUU [1st #23] (Eterna round: R97, puzzle: Exclusion 1) | 70.3 | 78.3 | – | – | – | – |
| UUGUACAUAGGAUAUAGUUGUUUGUACAUGAGGAUCACCCAUGUUAUGUAUCUUUUGCUUCUAGAAGGAUGUUCUU [JR_E5_Sub005] (puzzle: Exclusion 5) | – | – | – | 32.2 | – | – |
| UUGUACCGGUGAGGAUAUUUUUAAUAGAGCUUUAUGAUAUACAUGAGGAUCACCCAUGUUACUUUAAAGAAGGCAUCGGAUUAU [JL JR Sub091 mod 3] (Eterna round: R96, puzzle: Exclusion NG 2) | 14.9 | 20.6 | 12 | – | – | – |

| Sequence | apparent KD of MS2 coat protein (input ligand: FMN 200 uM) [nM] | apparent KD of MS2 coat protein (input ligand: none) [nM] | apparent KD of MS2 coat protein [1] [nM] | apparent KD of MS2 coat protein [2] [nM] | apparent KD of MS2 coat protein [3] [nM] | apparent KD of MS2 coat protein [4] [nM] |
| --- | --- | --- | --- | --- | --- | --- |
| UUGUCACAUGAGGAUCACCCAUGUGAGGAUAUGGCCCGCCCGGCGUGUGCUGGUUUUGUCAGAAGGCGCGUGGG [salish99_ex1_r4_028] (Eterna round: R97, puzzle: Exclusion 1) | 24.6 | 19.6 | – | – | – | – |
| UUGUUAUAUGAAGGAUAUACUUAACAUGAGGAUCACCCAUGUGGUGUUGUGAGUGAGUGAGUUUAGUAGAAGGUCAAUGAUUUU [JMF's solution 73] (Eterna round: R96, puzzle: Exclusion NG 2) | 513 | 344 | 309 | – | – | – |
| UUGUUCCGUGUAGGAUAUUGGCCUCCCUCGGGCCGAGAAGGACAUGAGGAUCACCCAUGUAUGCUAUUAUCGCGCGUGGCGCAC [Design 94] (Eterna round: R96, puzzle: Exclusion NG 1) | 330 | 25.2 | 23.1 | – | – | – |
| UUGUUGUAUGUAGGAUAUGCAUAUUGUUAUUAUGCAGAAGGACAUGAGGAUCACCCAUGUAUAUUAUUAUUAUAUAUUAUAUAU [Title] (Eterna round: R96, puzzle: Exclusion NG 1) | – | – | 20.9 | – | – | – |
| UUUAAAACAUAGGAUAUCGAAUAAAUCAUUUAACGAGAAGGAUGAACAUGAGGAUCACCCAUGUGGUAUCAUGG [Mat - Exclusion 6 - JL Mod - D20] (puzzle: Exclusion 6) | – | – | – | 183 | 219 | 207 |
| UUUAAGUCAGGAUAUCGUUAAUUUAAUAAAUUAAUUUAAUUCGAGAAGGGACAUGAGGAUCACCCAUGUAAUUU [Ex4 #2] (Eterna round: R97, puzzle: Exclusion 4) | 33.5 | 28 | – | – | – | – |
| UUUAAUGGAAUUAAGAUCACAUGAGGAUCACCCAUGUAUAUAUAGGAUAUCAGCUCGUGUAGAGCUGAGAAGGAUAUAUACAUA [ExNG3/6-B3] (Eterna round: R96, puzzle: Exclusion NG 3) | 208 | 185 | 344 | – | – | – |
| UUUAAUUGUGACAUGGGUGACAUGAGGAUCACCCAUGUCACAAGCUUUUUGUUCGUCUUAUAAUUAACCCAUGUCAC [Stov1/13-B1] (Eterna round: R97, puzzle: Sensor, turn-off variant 1) | 37.8 | 123 | – | – | – | – |
| UUUAAUUUAAUUAAGAUCACAUGAGGAUCACCCAUGUAUAUAUAGGAUAUCAGCUCGUUUAGAGCUGAGAAGGAUAUAUACAUA [ExNG3/4-A2] (Eterna round: R96, puzzle: Exclusion NG 3) | 433 | 58.2 | 40.1 | – | – | – |
| UUUAAUUUUUUUUUUUUACAAGCUUUUUGCUCGUCUUAUACAUGAGGAUCACCCAUGUAAGUGGGAGGUAAAUUAUC [JMF 76] (puzzle: Sensor v3, turn-off variant 2) | – | – | – | 201 | 54.3 | 102 |
| UUUAAUUUUUUUUUUUUACAAGCUUUUUGCUCGUCUUAUACAUGAGGAUCACCCAUGUAGGUGAAGGGUAAAUUAUC [JMF 81] (puzzle: Sensor v3, turn-off variant 2) | – | – | – | 77.7 | 17.9 | 15.8 |
| UUUAAUUUUUUUUUUUUACAAGCUUUUUGCUCGUCUUAUACAUGAGGAUCACCCAUGUGAAUGGGAAGUAAAUUAUC [JMF 51] (puzzle: Sensor v3, turn-off variant 2) | – | – | – | 183 | 103 | 148 |
| UUUAAUUUUUUUUUUUUACAAGCUUUUUGCUCGUCUUAUACAUGAGGAUCACCCAUGUGGGUAGAAAAUAAAUUAUC [JMF 91] (puzzle: Sensor v3, turn-off variant 2) | – | – | – | 65.2 | 44.1 | 48.7 |
| UUUAAUUUUUUUUUUUUACAAGCUUUUUGCUCGUCUUAUACAUGAGGAUCACCCAUGUGGGUAGAAGGUAAAUUAUC [JMF 66] (puzzle: Sensor v3, turn-off variant 2) | – | – | – | 64.9 | 24.3 | 22.4 |
| UUUAAUUUUUUUUUUUUACAAGCUUUUUGCUCGUCUUAUACAUGAGGAUCACCCAUGUGGGUGAAAGAUAAAUUAUC [JMF 5] (puzzle: Sensor v3, turn-off variant 2) | – | – | – | 19.2 | 54.9 | 37.6 |
| UUUAGUUCAGGAUAUGAUGAAUUAUACAUGAGGAUCACCCAUGUAGAUCCUGAAUUAACAUCAGAAGGGAACAUUU [JL-ex5-4.46 Brourd mod] (Eterna round: R97, puzzle: Exclusion 5) | 23 | 16.4 | – | – | – | – |
| UUUAUAUAGUAAGGAUAUGUAUUAUUUUUUUCAACAGAAGGUACUGACAUGAGGAUCACCCAUGUUUUAGUGUGGGCAUGUAGU [JMF's solution 98] (Eterna round: R96, puzzle: Exclusion NG 1) | – | – | 323 | – | – | – |
